Data as given in EP4700044A1, “PROTEIN ANALOGUE AND USE THEREOF” (Shanghai Duomirui Biotechnology., Ltd., priority 2023, dated 2024).

molecular target: FGFR1c, P11362; assay: cell-based or functional assay
Sequence (P11362 22-822): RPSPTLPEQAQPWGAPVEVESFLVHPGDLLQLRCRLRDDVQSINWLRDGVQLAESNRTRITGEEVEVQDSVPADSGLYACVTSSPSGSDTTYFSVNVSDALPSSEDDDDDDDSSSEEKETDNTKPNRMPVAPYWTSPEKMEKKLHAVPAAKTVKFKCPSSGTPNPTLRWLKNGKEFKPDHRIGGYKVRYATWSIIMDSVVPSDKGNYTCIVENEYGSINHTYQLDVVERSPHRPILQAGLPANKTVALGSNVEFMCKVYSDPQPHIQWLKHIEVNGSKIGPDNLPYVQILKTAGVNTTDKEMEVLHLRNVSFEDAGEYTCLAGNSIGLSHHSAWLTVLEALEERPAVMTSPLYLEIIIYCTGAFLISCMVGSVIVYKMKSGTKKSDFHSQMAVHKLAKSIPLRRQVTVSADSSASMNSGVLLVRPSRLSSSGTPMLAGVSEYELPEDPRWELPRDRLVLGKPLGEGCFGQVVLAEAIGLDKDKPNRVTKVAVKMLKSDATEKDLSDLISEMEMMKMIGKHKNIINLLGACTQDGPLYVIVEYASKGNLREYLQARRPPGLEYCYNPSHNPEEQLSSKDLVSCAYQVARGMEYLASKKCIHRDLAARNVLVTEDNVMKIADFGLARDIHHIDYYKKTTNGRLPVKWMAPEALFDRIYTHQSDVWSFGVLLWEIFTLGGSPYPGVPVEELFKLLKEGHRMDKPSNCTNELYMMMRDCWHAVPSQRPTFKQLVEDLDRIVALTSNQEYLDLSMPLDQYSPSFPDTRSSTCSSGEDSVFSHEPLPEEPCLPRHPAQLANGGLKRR

| Binder | EC50(nM), dual-luciferase reporter gene assay, iLite FGF21 assay ready cells [nM] |
| --- | --- |
| Compound 5.11, Q9NSA1 29-209 (ligand, here or on the partner: Cys 122 (K122C) carries the albumin-binding agent of Example 2.3, C20 Dicarboxylic Acid-AEEA-gGlu-gGlu-Lys(bromoacetyl)-COOH (bromine displaced by the thiol)) HPIPDSSPLLQFGGQVRQRYLYTDDAQQTEAHLEIREDGTVGGAADQSPESLLQLKALKPGVIQILGVKTSRFLCQRPDGALYGSLHFDPEACSFRERLLEDGYNVYQSEAHGLPLHLPGNCSPHRDPAPRGPARFLPLPGLPPAPPEPPGILAPQPPDVGSSDPLSMVGGSQGRSPSYES | 2.09 |
| Compound 5.1, Q9NSA1 29-209 (ligand, here or on the partner: Cys 30 (E30C) carries the albumin-binding agent of Example 2.1, C18 Dicarboxylic Acid-AEEA-gGlu-gGlu-Lys(bromoacetyl)-COOH (bromine displaced by the thiol)) HPIPDSSPLLQFGGQVRQRYLYTDDAQQTCAHLEIREDGTVGGAADQSPESLLQLKALKPGVIQILGVKTSRFLCQRPDGALYGSLHFDPEACSFRERLLEDGYNVYQSEAHGLPLHLPGNKSPHRDPAPRGPARFLPLPGLPPAPPEPPGILAPQPPDVGSSDPLSMVGGSQGRSPSYES | 4.61 |
| Compound 5.6, Q9NSA1 29-209 (ligand, here or on the partner: Cys 38 (D38C) carries the albumin-binding agent of Example 2.2, C18 Dicarboxylic Acid-gGlu-AEEA-AEEA-Lys(bromoacetyl)-COOH (bromine displaced by the thiol)) HPIPDSSPLLQFGGQVRQRYLYTDDAQQTEAHLEIRECGTVGGAADQSPESLLQLKALKPGVIQILGVKTSRFLCQRPDGALYGSLHFDPEACSFRERLLEDGYNVYQSEAHGLPLHLPGNKSPHRDPAPRGPARFLPLPGLPPAPPEPPGILAPQPPDVGSSDPLSMVGGSQGRSPSYES | 2.06 |
| Compound 5.4, Q9NSA1 29-209 (ligand, here or on the partner: Cys 122 (K122C) carries the albumin-binding agent of Example 2.1, C18 Dicarboxylic Acid-AEEA-gGlu-gGlu-Lys(bromoacetyl)-COOH (bromine displaced by the thiol)) HPIPDSSPLLQFGGQVRQRYLYTDDAQQTEAHLEIREDGTVGGAADQSPESLLQLKALKPGVIQILGVKTSRFLCQRPDGALYGSLHFDPEACSFRERLLEDGYNVYQSEAHGLPLHLPGNCSPHRDPAPRGPARFLPLPGLPPAPPEPPGILAPQPPDVGSSDPLSMVGGSQGRSPSYES | 0.99 |
| Compound 5.7, Q9NSA1 29-209 (ligand, here or on the partner: Cys 46 (D46C) carries the albumin-binding agent of Example 2.2, C18 Dicarboxylic Acid-gGlu-AEEA-AEEA-Lys(bromoacetyl)-COOH (bromine displaced by the thiol)) HPIPDSSPLLQFGGQVRQRYLYTDDAQQTEAHLEIREDGTVGGAACQSPESLLQLKALKPGVIQILGVKTSRFLCQRPDGALYGSLHFDPEACSFRERLLEDGYNVYQSEAHGLPLHLPGNKSPHRDPAPRGPARFLPLPGLPPAPPEPPGILAPQPPDVGSSDPLSMVGGSQGRSPSYES | 1.06 |
| Compound 5.3, Q9NSA1 29-209 (ligand, here or on the partner: Cys 46 (D46C) carries the albumin-binding agent of Example 2.1, C18 Dicarboxylic Acid-AEEA-gGlu-gGlu-Lys(bromoacetyl)-COOH (bromine displaced by the thiol)) HPIPDSSPLLQFGGQVRQRYLYTDDAQQTEAHLEIREDGTVGGAACQSPESLLQLKALKPGVIQILGVKTSRFLCQRPDGALYGSLHFDPEACSFRERLLEDGYNVYQSEAHGLPLHLPGNKSPHRDPAPRGPARFLPLPGLPPAPPEPPGILAPQPPDVGSSDPLSMVGGSQGRSPSYES | 0.24 |
| Compound 5.2, Q9NSA1 29-209 (ligand, here or on the partner: Cys 38 (D38C) carries the albumin-binding agent of Example 2.1, C18 Dicarboxylic Acid-AEEA-gGlu-gGlu-Lys(bromoacetyl)-COOH (bromine displaced by the thiol)) HPIPDSSPLLQFGGQVRQRYLYTDDAQQTEAHLEIRECGTVGGAADQSPESLLQLKALKPGVIQILGVKTSRFLCQRPDGALYGSLHFDPEACSFRERLLEDGYNVYQSEAHGLPLHLPGNKSPHRDPAPRGPARFLPLPGLPPAPPEPPGILAPQPPDVGSSDPLSMVGGSQGRSPSYES | 1.99 |
| Compound 5.10, Q9NSA1 29-209 (ligand, here or on the partner: Cys 46 (D46C) carries the albumin-binding agent of Example 2.3, C20 Dicarboxylic Acid-AEEA-gGlu-gGlu-Lys(bromoacetyl)-COOH (bromine displaced by the thiol)) HPIPDSSPLLQFGGQVRQRYLYTDDAQQTEAHLEIREDGTVGGAACQSPESLLQLKALKPGVIQILGVKTSRFLCQRPDGALYGSLHFDPEACSFRERLLEDGYNVYQSEAHGLPLHLPGNKSPHRDPAPRGPARFLPLPGLPPAPPEPPGILAPQPPDVGSSDPLSMVGGSQGRSPSYES | 2.69 |
| Compound 5.9, Q9NSA1 29-209 (ligand, here or on the partner: Cys 125 (H125C) carries the albumin-binding agent of Example 2.2, C18 Dicarboxylic Acid-gGlu-AEEA-AEEA-Lys(bromoacetyl)-COOH (bromine displaced by the thiol)) HPIPDSSPLLQFGGQVRQRYLYTDDAQQTEAHLEIREDGTVGGAADQSPESLLQLKALKPGVIQILGVKTSRFLCQRPDGALYGSLHFDPEACSFRERLLEDGYNVYQSEAHGLPLHLPGNKSPCRDPAPRGPARFLPLPGLPPAPPEPPGILAPQPPDVGSSDPLSMVGGSQGRSPSYES | 1.18 |
| Compound 5.5, Q9NSA1 29-209 (ligand, here or on the partner: Cys 125 (H125C) carries the albumin-binding agent of Example 2.1, C18 Dicarboxylic Acid-AEEA-gGlu-gGlu-Lys(bromoacetyl)-COOH (bromine displaced by the thiol)) HPIPDSSPLLQFGGQVRQRYLYTDDAQQTEAHLEIREDGTVGGAADQSPESLLQLKALKPGVIQILGVKTSRFLCQRPDGALYGSLHFDPEACSFRERLLEDGYNVYQSEAHGLPLHLPGNKSPCRDPAPRGPARFLPLPGLPPAPPEPPGILAPQPPDVGSSDPLSMVGGSQGRSPSYES | 0.52 |
| Compound 5.8, Q9NSA1 29-209 (ligand, here or on the partner: Cys 122 (K122C) carries the albumin-binding agent of Example 2.2, C18 Dicarboxylic Acid-gGlu-AEEA-AEEA-Lys(bromoacetyl)-COOH (bromine displaced by the thiol)) HPIPDSSPLLQFGGQVRQRYLYTDDAQQTEAHLEIREDGTVGGAADQSPESLLQLKALKPGVIQILGVKTSRFLCQRPDGALYGSLHFDPEACSFRERLLEDGYNVYQSEAHGLPLHLPGNCSPHRDPAPRGPARFLPLPGLPPAPPEPPGILAPQPPDVGSSDPLSMVGGSQGRSPSYES | 1.13 |

The next lines start with the values.

| EC50(nM), dual-luciferase reporter gene assay, iLite FGF21 assay ready cells [nM] | Binder |
| --- | --- |
| 0.25 | Human mature FGF21 mutant RGE (FGF21RGE), Q9NSA1 29-209 (ligand) HPIPDSSPLLQFGGQVRQRYLYTDDAQQTEAHLEIREDGTVGGAADQSPESLLQLKALKPGVIQILGVKTSRFLCQRPDGALYGSLHFDPEACSFRERLLEDGYNVYQSEAHGLPLHLPGNKSPHRDPAPRGPARFLPLPGLPPAPPEPPGILAPQPPDVGSSDPLSMVGGSQGRSPSYES |
| 0.28 | Human mature FGF21 mutant H125C (FGF21H125C), Q9NSA1 29-209 (ligand) HPIPDSSPLLQFGGQVRQRYLYTDDAQQTEAHLEIREDGTVGGAADQSPESLLQLKALKPGVIQILGVKTSRFLCQRPDGALYGSLHFDPEACSFRERLLEDGYNVYQSEAHGLPLHLPGNKSPCRDPAPRGPARFLPLPGLPPAPPEPPGILAPQPPDVGSSDPLSMVGGSQGRSPSYES |
| 1.84 | Compound 5.13, Q9NSA1 29-209 (ligand, here or on the partner: Cys 46 (D46C) carries the albumin-binding agent of Example 2.4, C20 Dicarboxylic Acid-gGlu-AEEA-AEEA-Lys(bromoacetyl)-COOH (bromine displaced by the thiol)) HPIPDSSPLLQFGGQVRQRYLYTDDAQQTEAHLEIREDGTVGGAACQSPESLLQLKALKPGVIQILGVKTSRFLCQRPDGALYGSLHFDPEACSFRERLLEDGYNVYQSEAHGLPLHLPGNKSPHRDPAPRGPARFLPLPGLPPAPPEPPGILAPQPPDVGSSDPLSMVGGSQGRSPSYES |
| 0.47 | Compound 5.15, Q9NSA1 29-209 (ligand, here or on the partner: Cys 125 (H125C) carries the albumin-binding agent of Example 2.4, C20 Dicarboxylic Acid-gGlu-AEEA-AEEA-Lys(bromoacetyl)-COOH (bromine displaced by the thiol)) HPIPDSSPLLQFGGQVRQRYLYTDDAQQTEAHLEIREDGTVGGAADQSPESLLQLKALKPGVIQILGVKTSRFLCQRPDGALYGSLHFDPEACSFRERLLEDGYNVYQSEAHGLPLHLPGNKSPCRDPAPRGPARFLPLPGLPPAPPEPPGILAPQPPDVGSSDPLSMVGGSQGRSPSYES |
| 1.02 | Compound 5.14, Q9NSA1 29-209 (ligand, here or on the partner: Cys 122 (K122C) carries the albumin-binding agent of Example 2.4, C20 Dicarboxylic Acid-gGlu-AEEA-AEEA-Lys(bromoacetyl)-COOH (bromine displaced by the thiol)) HPIPDSSPLLQFGGQVRQRYLYTDDAQQTEAHLEIREDGTVGGAADQSPESLLQLKALKPGVIQILGVKTSRFLCQRPDGALYGSLHFDPEACSFRERLLEDGYNVYQSEAHGLPLHLPGNCSPHRDPAPRGPARFLPLPGLPPAPPEPPGILAPQPPDVGSSDPLSMVGGSQGRSPSYES |
| 1.31 | Human mature FGF21 mutant E30C (FGF21E30C), Q9NSA1 29-209 (ligand) HPIPDSSPLLQFGGQVRQRYLYTDDAQQTCAHLEIREDGTVGGAADQSPESLLQLKALKPGVIQILGVKTSRFLCQRPDGALYGSLHFDPEACSFRERLLEDGYNVYQSEAHGLPLHLPGNKSPHRDPAPRGPARFLPLPGLPPAPPEPPGILAPQPPDVGSSDPLSMVGGSQGRSPSYES |
| 1 | Human mature FGF21 mutant D38C (FGF21D38C), Q9NSA1 29-209 (ligand) HPIPDSSPLLQFGGQVRQRYLYTDDAQQTEAHLEIRECGTVGGAADQSPESLLQLKALKPGVIQILGVKTSRFLCQRPDGALYGSLHFDPEACSFRERLLEDGYNVYQSEAHGLPLHLPGNKSPHRDPAPRGPARFLPLPGLPPAPPEPPGILAPQPPDVGSSDPLSMVGGSQGRSPSYES |
| 0.3 | Human mature FGF21 mutant K122C (FGF21K122C), Q9NSA1 29-209 (ligand) HPIPDSSPLLQFGGQVRQRYLYTDDAQQTEAHLEIREDGTVGGAADQSPESLLQLKALKPGVIQILGVKTSRFLCQRPDGALYGSLHFDPEACSFRERLLEDGYNVYQSEAHGLPLHLPGNCSPHRDPAPRGPARFLPLPGLPPAPPEPPGILAPQPPDVGSSDPLSMVGGSQGRSPSYES |
| 0.28 | Human mature FGF21 mutant D46C (FGF21D46C), Q9NSA1 29-209 (ligand) HPIPDSSPLLQFGGQVRQRYLYTDDAQQTEAHLEIREDGTVGGAACQSPESLLQLKALKPGVIQILGVKTSRFLCQRPDGALYGSLHFDPEACSFRERLLEDGYNVYQSEAHGLPLHLPGNKSPHRDPAPRGPARFLPLPGLPPAPPEPPGILAPQPPDVGSSDPLSMVGGSQGRSPSYES |
| 1.4 | Compound 5.12, Q9NSA1 29-209 (ligand, here or on the partner: Cys 125 (H125C) carries the albumin-binding agent of Example 2.3, C20 Dicarboxylic Acid-AEEA-gGlu-gGlu-Lys(bromoacetyl)-COOH (bromine displaced by the thiol)) HPIPDSSPLLQFGGQVRQRYLYTDDAQQTEAHLEIREDGTVGGAADQSPESLLQLKALKPGVIQILGVKTSRFLCQRPDGALYGSLHFDPEACSFRERLLEDGYNVYQSEAHGLPLHLPGNKSPCRDPAPRGPARFLPLPGLPPAPPEPPGILAPQPPDVGSSDPLSMVGGSQGRSPSYES |
